Data: publication PMC6814714, “Binding partner- and force-promoted changes in αE-catenin conformation probed by native cysteine labeling” (Scientific Reports, 2019)

B1: β-catenin (natural protein, murine, UniProt Q02248 1-781, looked up)
chain: MATQADLMELDMAMEPDRKAAVSHWQQQSYLDSGIHSGATTTAPSLSGKGNPEEEDVDTSQVLYEWEQGFSQSFTQEQVADIDGQYAMTRAQRVRAAMFPETLDEGMQIPSTQFDAAHPTNVQRLAEPSQMLKHAVVNLINYQDDAELATRAIPELTKLLNDEDQVVVNKAAVMVHQLSKKEASRHAIMRSPQMVSAIVRTMQNTNDVETARCTAGTLHNLSHHREGLLAIFKSGGIPALVKMLGSPVDSVLFYAITTLHNLLLHQEGAKMAVRLAGGLQKMVALLNKTNVKFLAITTDCLQILAYGNQESKLIILASGGPQALVNIMRTYTYEKLLWTTSRVLKVLSVCSSNKPAIVEAGGMQALGLHLTDPSQRLVQNCLWTLRNLSDAATKQEGMEGLLGTLVQLLGSDDINVVTCAAGILSNLTCNNYKNKMMVCQVGGIEALVRTVLRAGDREDITEPAICALRHLTSRHQEAEMAQNAVRLHYGLPVVVKLLHPPSHWPLIKATVGLIRNLALCPANHAPLREQGAIPRLVQLLVRAHQDTQRRTSMGGTQQQFVEGVRMEEIVEGCTGALHILARDVHNRIVIRGLNTIPLFVQLLYSPIENIQRVAAGVLCELAQDKEAAEAIEAEGATAPLTELLHSRNEGVATYAAAVLFRMSEDKPQDYKKRLSVELTSSLFRTEPMAWNETADLGLDIGAQGEALGYRQDDPSYRSFHSGGYGQDALGMDPMMEHEMGGHHPGADYPVDGLPDLGHAQDLMDGLPPGDSNQLAWFDTDL
notes: β-catenin, murine; also called murine β-catenin
B2: β-catenin•Ecyto complex (complex)
chain 1: B1 chain
chain 2: not shown
notes: β-catenin, murine; cytoplasmic domain of E-cadherin (Ecyto); also called E-cadherin•β-catenin complex; cadherin•β-catenin
B3: αE-catenin 82–883 (C116S) (domain or fragment, murine, UniProt P26231 82-883, looked up)
chain: ESQFLKEELVVAVEDVRKQGDLMKSAAGEFADDPSSSVKRGNMVRAARALLSAVTRLLILADMADVYKLLVQLKVVEDGILKLRNAGNEQDLGIQYKALKPEVDKLNIMAAKRQQELKDVGNRDQMAAARGILQKNVPILYTASQACLQHPDVAAYKANRDLIYKQLQQAVTGISNAAQATASDDAAQHQGGSGGELAYALNNFDKQIIVDPLSFSEERFRPSLEERLESIISGAALMADSSCTRDDRRERIVAECNAVRQALQDLLSEYMGNAGRKERSDALNSAIDKMTKKTRDLRRQLRKAVMDHVSDSFLETNVPLLVLIEAAKNGNEKEVKEYAQVFREHANKLIEVANLACSISNNEEGVKLVRMSASQLEALCPQVINAALALAAKPQSKLAQENMDLFKEQWEKQVRVLTDAVDDITSIDDFLAVSENHILEDVNKCVIALQEKDVDGLDRTAGAIRGRAARVIHVVTSEMDNYEPGVYTEKVLEATKLLSNTVMPRFTEQVEAAVEALSSDPAQPMDENEFIDASRLVYDGIRDIRKAVLMIRTPEELDDSDFETEDFDVRSRTSVQTEDDQLIAGQSARAIMAQLPQEQKAKIAEQVASFQEEKSKLDAEVSKWDDSGNDIIVLAKQMCMIMMEMTDFTRGKGPLKNTSDVISAAKKIAEAGSRMDKLGRTIADHCPDSACKQDLLAYLQRIALYCHQLNICSKVKAEVQNLGGELVVSGVDSAMSLIQAAKNLMNAVVQTVKASYVASTKYQKSQGMASLNLPAVSWKMKAPEKKPLVKREKQDETQTKIK
notes: Crystallised as a homodimer; source: E. coli BL21, purified (glutathione-agarose, TEV cleavage, Mono Q, SEC); not shown: GST, N-terminal, cleaved
B4: vinculin D1 domain (residues 1–259) (domain or fragment, chicken, UniProt P12003 1-259, looked up)
chain: MPVFHTRTIESILEPVAQQISHLVIMHEEGEVDGKAIPDLTAPVSAVQAAVSNLVRVGKETVQTTEDQILKRDMPPAFIKVENACTKLVRAAQMLQADPYSVPARDYLIDGSRGILSGTSDLLLTFDEAEVRKIIRVCKGILEYLTVAEVVETMEDLVTYTKNLGPGMTKMAKMIDERQQELTHQEHRVMLVNSMNTVKELLPVLISAMKIFVTTKNTKSQGIEEALKNRNFTVEKMSAEINEIIRVLQLTSWDEDAWA
notes: vinculin D1 domain, residues 1–259; the methods name chicken vinculin just before it
B5: αE-catenin R551A (full-length) (natural protein, murine, UniProt P26231 1-906, looked up)
chain: MTAVHAGNINFKWDPKSLEIRTLAVERLLEPLVTQVTTLVNTNSKGPSNKKRGRSKKAHVLAASVEQATENFLEKGDKIAKESQFLKEELVVAVEDVRKQGDLMKSAAGEFADDPCSSVKRGNMVRAARALLSAVTRLLILADMADVYKLLVQLKVVEDGILKLRNAGNEQDLGIQYKALKPEVDKLNIMAAKRQQELKDVGNRDQMAAARGILQKNVPILYTASQACLQHPDVAAYKANRDLIYKQLQQAVTGISNAAQATASDDAAQHQGGSGGELAYALNNFDKQIIVDPLSFSEERFRPSLEERLESIISGAALMADSSCTRDDRRERIVAECNAVRQALQDLLSEYMGNAGRKERSDALNSAIDKMTKKTRDLRRQLRKAVMDHVSDSFLETNVPLLVLIEAAKNGNEKEVKEYAQVFREHANKLIEVANLACSISNNEEGVKLVRMSASQLEALCPQVINAALALAAKPQSKLAQENMDLFKEQWEKQVRVLTDAVDDITSIDDFLAVSENHILEDVNKCVIALQEKDVDGLDRTAGAIRGRAAAVIHVVTSEMDNYEPGVYTEKVLEATKLLSNTVMPRFTEQVEAAVEALSSDPAQPMDENEFIDASRLVYDGIRDIRKAVLMIRTPEELDDSDFETEDFDVRSRTSVQTEDDQLIAGQSARAIMAQLPQEQKAKIAEQVASFQEEKSKLDAEVSKWDDSGNDIIVLAKQMCMIMMEMTDFTRGKGPLKNTSDVISAAKKIAEAGSRMDKLGRTIADHCPDSACKQDLLAYLQRIALYCHQLNICSKVKAEVQNLGGELVVSGVDSAMSLIQAAKNLMNAVVQTVKASYVASTKYQKSQGMASLNLPAVSWKMKAPEKKPLVKREKQDETQTKIKRASQKKHVNPVQALSEFKAMDSI
notes: αE-catenin, murine, full length, with the point mutation R551A; Used in ITC (monomer in the cell); also called R551A αE-catenin; R551A mutant; source: E. coli BL21, purified (glutathione-agarose, TEV cleavage, Mono Q, SEC); monomer used; not shown: GST, N-terminal, cleaved

Key:
[1] = molecular target: B5; assay: ITC; VP-ITC; αE-catenin monomer (or its complex) in the cell at 8–11 μM, binding partner injected at 70–155 μM; 20 mM HEPES pH 8.0, 150 mM NaCl, 1 mM DTT; 25 °C; conditions: both partners purified
[2] = molecular target: the molecule itself; assay: crystal structure; αE-catenin 82–883 (C116S) dimer, 4.0 Å, crystals not dehydrated
[3] = molecular target: T1, αE-catenin R551A•β-catenin•Ecyto complex (murine | , UniProt P26231 1-906; Q02248 1-781; P09803 734-884, R551A); assay: ITC; VP-ITC; αE-catenin monomer (or its complex) in the cell at 8–11 μM, binding partner injected at 70–155 μM; 20 mM HEPES pH 8.0, 150 mM NaCl, 1 mM DTT; 25 °C; conditions: both partners purified
T1 construct: αE-catenin, murine, full length, with the point mutation R551A; β-catenin, murine; cytoplasmic domain of E-cadherin (Ecyto); Ternary complex placed in the ITC cell; also called ternary E-cadherin•β-catenin•αE-catenin R551A mutant complex; source: αE-catenin R551A: E. coli BL21, purified; not shown: GST, N-terminal, cleaved; copies: + +

β-catenin•Ecyto complex = molecular target: B2; assay: as above; conditions: both partners purified
Chain of β-catenin•Ecyto complex (P09803 734-884, one chain of several): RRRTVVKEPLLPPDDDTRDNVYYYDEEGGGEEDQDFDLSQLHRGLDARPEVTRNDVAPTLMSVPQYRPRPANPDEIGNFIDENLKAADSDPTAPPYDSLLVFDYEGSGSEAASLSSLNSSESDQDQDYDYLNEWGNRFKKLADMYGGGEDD

T1 sequence (P09803 734-884, stated change not applied, one chain of several): as the sequence (P09803 734-884, one chain of several) above

Binder | Kd [1] [nM] | dH [1] [kcal/mol] | further results
B1 | 78 | -33.3 | –
B2 | – | -32.3 | –
B3 | – | – | binding result [2]: binds
B4 | 4.1 | 7.7 | Kd [3]: 26 nM; dH [3]: 6.7 kcal/mol
B5 | – | – | Kd (β-catenin•Ecyto complex): 14 nM
